How the values were obtained:
NGalNAc-T1 = biological target: T1, NGalNAc-T1 (Homo sapiens, UniProt Q76KP1); assay: Study of optimum pH in enzymatic activity; assay type: biochemical; settings: for (A) − (B): blank 263.21 subtracted
T1 sequence (Q76KP1 62-1039): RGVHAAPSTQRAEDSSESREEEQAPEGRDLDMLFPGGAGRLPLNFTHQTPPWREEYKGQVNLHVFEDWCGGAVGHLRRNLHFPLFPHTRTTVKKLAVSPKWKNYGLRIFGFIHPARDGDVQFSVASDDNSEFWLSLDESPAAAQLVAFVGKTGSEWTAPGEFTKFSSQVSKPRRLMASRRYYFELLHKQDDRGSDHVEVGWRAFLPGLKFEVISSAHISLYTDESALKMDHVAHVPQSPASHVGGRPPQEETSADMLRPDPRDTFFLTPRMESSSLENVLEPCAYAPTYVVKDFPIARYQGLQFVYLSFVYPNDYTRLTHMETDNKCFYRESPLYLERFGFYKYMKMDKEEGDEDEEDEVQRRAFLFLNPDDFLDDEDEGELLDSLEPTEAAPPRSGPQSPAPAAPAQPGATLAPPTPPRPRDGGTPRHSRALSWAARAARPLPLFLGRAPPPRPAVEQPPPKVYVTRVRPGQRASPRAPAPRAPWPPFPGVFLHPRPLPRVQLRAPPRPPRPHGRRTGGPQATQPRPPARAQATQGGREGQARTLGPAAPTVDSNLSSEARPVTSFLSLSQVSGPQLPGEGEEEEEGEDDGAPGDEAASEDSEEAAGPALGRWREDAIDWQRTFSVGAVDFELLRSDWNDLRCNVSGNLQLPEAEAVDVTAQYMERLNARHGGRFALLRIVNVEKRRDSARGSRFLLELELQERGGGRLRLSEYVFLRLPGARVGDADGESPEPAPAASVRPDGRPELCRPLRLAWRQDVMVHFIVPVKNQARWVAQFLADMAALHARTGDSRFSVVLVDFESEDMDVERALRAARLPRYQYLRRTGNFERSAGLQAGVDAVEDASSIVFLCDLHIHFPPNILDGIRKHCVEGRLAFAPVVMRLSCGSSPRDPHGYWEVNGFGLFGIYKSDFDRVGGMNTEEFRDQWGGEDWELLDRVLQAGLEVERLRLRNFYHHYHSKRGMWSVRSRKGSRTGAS
Source text: As described above, it was explained that NGalNAc-T1 and NGalNAc-T2 are glycosyl transferases which transfer GalNAc to GlcNAc. Thereat, the optimum pH of both enzymes was studied. The buffer solutions used are MES (pH 5.5, 6.0, 6.26, 6.5, 6.75), HEPES (pH 6.75, 7.0, 7.4).
In addition, the value (263.21 dpm) of MES (pH 6.75) was adopted as a blank value in the case of a non-enzyme. Further, when pH of HEPES buffer was 7.4 for NGalNAc-T1 and 6.75 for NGalNAc-T2, the highest value was shown. […] Hereinafter, MES (pH 6.5) was used in each of experiments.

[1] = test system: asialo/agalacto-fetal calf fetuin; assay: LacdiNAc synthesizing activity toward asialo/agalacto-fetal calf fetuin, WFA lectin blot; assay type: biochemical; settings: 37° C. for 16 hr, HRP conjugated WFA lectin detection
Description: Fetal calf fetuin (FCF), neuraminidase, β1-4 galactosidase and glycopeptidase F were purchased from Sigma, Nacalai Tesque (Kyoto, Japan), Calbiochem and Takara, respectively. Asialo/agalacto-FCF was prepared from 200 μg of FCF by incubating with 4 μU of neuraminidase and 12 μU of β1,4-galactosidase at 37° C. for 16 hr. The transfer of GalNAc by GalNAc-T2 to glycoprotein was performed in 20 μl of a standard reaction mixture containing 50 μg of asialo/agalacto-FCF produced by glycosidase treatment. After the incubation at 37° C. for 16 hr, each 5 μl of the reaction mixture was digested with glycopeptidase F (GPF) according to manufacture's instruction. For detection of transferred GalNAc, horseradish peroxidase (HRP) conjugated lectin, Wisteria floribunda agglutinin (WFA) (EY Laboratories, San Mateo, Calif.), was used. A 1 μl of reaction mixtures subjected to 12.5% SDS-PAGE were transferred to nitrocellulose membrane (Schleicher & Schuell, Keene, N.H.) and stained with 0.1% HRP conjugated WFA lectin. The signals were detected using enhanced chemiluminescence (ECL) and Hyperfilm ECL (Amersham Biosciences).

glycodelin in CHO cells = assay: N-glycan structures on glycodelin from NGalNAc-T gene transfected CHO cells, WFA lectin blotting; assay type: cell-based; settings: gene co-transfected with glycodelin gene in CHO cells, 48 hr culture medium
Source text: As shown above, both NGalNAc-T1 and -T2 could synthesize LacdiNAc structures on mono- and oligosaccharide acceptors. Actually, it is known that the LacdiNAc structures exist in N-glycans on some glycoproteins. Therefore we examined the ability of NGalNAc-T1 to construct LacdiNAc on glycodelin, which is one of major glycoproteins carrying LacdiNAc structures, in vivo. CHO cells were employed for this purpose, because glycodelin produced in CHO cells is devoid of any of the LacdiNAc-based chains.
The glycodelin expression vector was transfected into CHO cells expressing NGalNAc-T1 or -T2 gene and the culture medium was collected from 48 hr-culture medium. Glycodelin was harvested with WFA affinity column from the culture medium. The harvested glycodelin was applied to SDS-PAGE and used for lectin blotting with WFA.

B1: NGalNAc-T1: human enzyme (SEQ ID NO: 1) transferring N-acetylgalactosamine to N-acetylglucosamine via β1-4 linkage; tested as FLAG-tagged amino acids 62-1039 (protein, listed as Homo sapiens)
chain: RGVHAAPSTQRAEDSSESREEEQAPEGRDLDMLFPGGAGRLPLNFTHQTPPWREEYKGQVNLHVFEDWCGGAVGHLRRNLHFPLFPHTRTTVKKLAVSPKWKNYGLRIFGFIHPARDGDVQFSVASDDNSEFWLSLDESPAAAQLVAFVGKTGSEWTAPGEFTKFSSQVSKPRRLMASRRYYFELLHKQDDRGSDHVEVGWRAFLPGLKFEVISSAHISLYTDESALKMDHVAHVPQSPASHVGGRPPQEETSADMLRPDPRDTFFLTPRMESSSLENVLEPCAYAPTYVVKDFPIARYQGLQFVYLSFVYPNDYTRLTHMETDNKCFYRESPLYLERFGFYKYMKMDKEEGDEDEEDEVQRRAFLFLNPDDFLDDEDEGELLDSLEPTEAAPPRSGPQSPAPAAPAQPGATLAPPTPPRPRDGGTPRHSRALSWAARAARPLPLFLGRAPPPRPAVEQPPPKVYVTRVRPGQRASPRAPAPRAPWPPFPGVFLHPRPLPRVQLRAPPRPPRPHGRRTGGPQATQPRPPARAQATQGGREGQARTLGPAAPTVDSNLSSEARPVTSFLSLSQVSGPQLPGEGEEEEEGEDDGAPGDEAASEDSEEAAGPALGRWREDAIDWQRTFSVGAVDFELLRSDWNDLRCNVSGNLQLPEAEAVDVTAQYMERLNARHGGRFALLRIVNVEKRRDSARGSRFLLELELQERGGGRLRLSEYVFLRLPGARVGDADGESPEPAPAASVRPDGRPELCRPLRLAWRQDVMVHFIVPVKNQARWVAQFLADMAALHARTGDSRFSVVLVDFESEDMDVERALRAARLPRYQYLRRTGNFERSAGLQAGVDAVEDASSIVFLCDLHIHFPPNILDGIRKHCVEGRLAFAPVVMRLSCGSSPRDPHGYWEVNGFGLFGIYKSDFDRVGGMNTEEFRDQWGGEDWELLDRVLQAGLEVERLRLRNFYHHYHSKRGMWSVRSRKGSRTGAS
modifications: FLAG tag
NGalNAc-T1; HEPES buffer
  pH at which the highest value was shown: 7.4
NGalNAc-T1; HEPES buffer (pH 6.75)
  Incorporation of radioactivity (A): 1685.06 dpm
  (A) − (B): 1421.85 dpm
NGalNAc-T1; HEPES buffer (pH 7.0)
  Incorporation of radioactivity (A): 1138.38 dpm
  (A) − (B): 875.17 dpm
NGalNAc-T1; HEPES buffer (pH 7.4)
  Incorporation of radioactivity (A): 2587.48 dpm
  (A) − (B): 2324.27 dpm
NGalNAc-T1; MES buffer
  pH at which the activity tends to be higher: 6.5
NGalNAc-T1; MES buffer (pH 5.5)
  Incorporation of radioactivity (A): 339.76 dpm
  (A) − (B): 76.55 dpm
NGalNAc-T1; MES buffer (pH 6.0)
  Incorporation of radioactivity (A): 321.04 dpm
  (A) − (B): 57.83 dpm
NGalNAc-T1; MES buffer (pH 6.26)
  Incorporation of radioactivity (A): 636.34 dpm
  (A) − (B): 373.13 dpm
NGalNAc-T1; MES buffer (pH 6.5)
  Incorporation of radioactivity (A): 1767.72 dpm
  (A) − (B): 1504.51 dpm
NGalNAc-T1; MES buffer (pH 6.75)
  Incorporation of radioactivity (A): 923.92 dpm
  (A) − (B): 660.71 dpm
[1]
  transfer of GalNAc to glycoprotein asialo/agalacto-FCF: same as NGalNAc-T2
Glycodelin in CHO cells
  non-reducing terminal GalNAc on glycodelin: non-reducing terminal GalNAc is detected

Source: US8278037B2, “N-acetylgalactosamine transferases and nucleic acids encoding the same” (National Institute of Advanced Industrial Science and …, priority 2002, dated 2012)
